Assay results from patent publication US20240261333A1, “NOVEL TARGETS FOR ENHANCING ANTI-TUMOR IMMUNITY” (THE BROAD INSTITUTE, INC., priority 2021, published 2024).

T1: B3GNT2 (Homo sapiens, UniProt Q9NY97)
T1 construct: The respective ORFs of candidate genes [CD274 (NM_014143), MCL1 (NM_021960), JUNB (NM_002229), and B3GNT2 (NM_006577)] were synthesized; expressed in transfected cells; host or cells: A375 melanoma cells (lentiviral ORF overexpression)
T1 sequence (Q9NY97 1-397): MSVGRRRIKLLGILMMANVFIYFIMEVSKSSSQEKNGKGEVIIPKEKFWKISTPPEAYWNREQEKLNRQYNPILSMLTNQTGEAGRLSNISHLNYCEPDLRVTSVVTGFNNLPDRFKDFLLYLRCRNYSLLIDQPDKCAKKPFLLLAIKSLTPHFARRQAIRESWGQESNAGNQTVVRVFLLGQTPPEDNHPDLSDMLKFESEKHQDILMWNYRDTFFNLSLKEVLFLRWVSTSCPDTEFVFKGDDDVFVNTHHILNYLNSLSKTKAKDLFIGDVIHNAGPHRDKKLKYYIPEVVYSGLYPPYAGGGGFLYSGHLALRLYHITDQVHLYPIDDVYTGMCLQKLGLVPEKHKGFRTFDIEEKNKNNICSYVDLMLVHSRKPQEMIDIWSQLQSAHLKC

B1: RBM14 (protein)
chain: MKIFVGNVDGADTTPEELAALFAPYGTVMSCAVMKQFAFVHMRENAGALRAIEALHGHELRPGRALVVEMSRPRPLNTWKIFVGNVSAACTSQELRSLFERRGRVIECDVVKDYAFVHMEKEADAKAAIAQLNGKEVKGKRINVELSTKGQKKGPGLAVQSGDKTKKPGAGDTAFPGTGGFSATFDYQQAFGNSTGGFDGQARQPTPPFFGRDRSPLRRSPPRASYVAPLTAQPATYRAQPSVSLGAAYRAQPSASLGVGYRTQPMTAQAASYRAQPSVSLGAPYRGQLASPSSQSAAASSLGPYGGAQPSASALSSYGGQAAAASSLNSYGAQGSSLASYGNQPSSYGAQAASSYGVRAAASSYNTQGAASSLGSYGAQAASYGAQSAASSLAYGAQAASYNAQPSASYNAQSAPYAAQQAASYSSQPAAYVAQPATAAAYASQPAAYAAQATTPMAGSYGAQPVVQTQLNSYGAQASMGLSGSYGAQSAAAATGSYGAAAAYGAQPSATLAAPYRTQSSASLAASYAAQQHPQAAASYRGQPGNAYDGAGQPSAAYLSMSQGAVANANSTPPPYERTRLSPPRASYDDPYKKAVAMSKRYGSDRRLAELSDYRRLSESQLSFRRSPTKSSLDYRRLPDAHSDYARYSGSYNDYLRAAQMHSGYQRRM
B2: C1orf68 (protein)
chain: MCDQQKQPQFPPSCVKGSGLGAGQGSNGASVKCPVPCQTQTVCVTGPAPCPTQTYVKYQVPCQTQTYVKCPAPCQRTYVKYPTPCQTYVKCPAPCQTTYVKCPTPCQTYVKCPAPCQMTYIKSPAPCQTQTCYVQGASPCQSYYVQAPASGSTSQYCVTDPCSAPCSTSYCCLAPRTFGVSPLRRWIQRPQNCNTGSSGCCENSGSSGCCGSGGCGCSCGCGSSGCCCLGIIPMRSRGPACCDHEDDCCC
B3: KRT6B (protein)
chain: ASTSTTIRSHSSSRRGFSANSARLPGVSRSGFSSISVSRSRGSGGLGGACGGAGFGSRSLYGLGGSKRISIGGGSCAISGGYGSRAGGSYGFGGAGSGFGFGGGAGIGFGLGGGAGLAGGFGGPGFPVCPPGGIQEVTVNQSLLTPLNLQIDPAIQRVRAEEREQIKTLNNKFASFIDKVRFLEQQNKVLDTKWTLLQEQGTKTVRQNLEPLFEQYINNLRRQLDNIVGERGRLDSELRNMQDLVEDLKNKYEDEINKRTAAENEFVTLKKDVDAAYMNKVELQAKADTLTDEINFLRALYDAELSQMQTHISDTSVVLSMDNNRNLDLDSIIAEVKAQYEEIAQRSRAEAESWYQTKYEELQITAGRHGDDLRNTKQEIAEINRMIQRLRSEIDHVKKQCANLQAAIADAEQRGEMALKDAKNKLEGLEDALQKAKQDLARLLKEYQELMNVKLALDVEIATYRKLLEGEECRLNGEGVGQVNISVVQSTVSSGYGGASGVGSGLGLGGGSSYSYGSGLGVGGGFSSSSGRATGGGLSSVGGGSSTIKYTTTSSSSRKSYKH
B4: CAT (protein)
chain: ADSRDPASDQMQHWKEQRAAQKADVLTTGAGNPVGDKLNVITVGPRGPLLVQDVVFTDEMAHFDRERIPERVVHAKGAGAFGYFEVTHDITKYSKAKVFEHIGKKTPIAVRFSTVAGESGSADTVRDPRGFAVKFYTEDGNWDLVGNNTPIFFIRDPILFPSFIHSQKRNPQTHLKDPDMVWDFWSLRPESLHQVSFLFSDRGIPDGHRHMNGYGSHTFKLVNANGEAVYCKFHYKTDQGIKNLSVEDAARLSQEDPDYGIRDLFNAIATGKYPSWTFYIQVMTFNQAETFPFNPFDLTKVWPHKDYPLIPVGKLVLNRNPVNYFAEVEQIAFDPSNMPPGIEASPDKMLQGRLFAYPDTHRHRLGPNYLHIPVNCPYRARVANYQRDGPMCMQDNQGGAPNYYPNSFGAPEQQPSALEHSIQYSGEVRRFNTANDDNVTQVRAFYVNVLNEEQRKRLCENIAGHLKDAQIFIQKKAVKNFTEVHPDYGSHIQALLDKYNAEKPKNAIHTFVQSGSHLAAREKANL
B5: SLC25A6 (protein)
chain: MTEQAISFAKDFLAGGIAAAISKTAVAPIERVKLLLQVQHASKQIAADKQYKGIVDCIVRIPKEQGVLSFWRGNLANVIRYFPTQALNFAFKDKYKQIFLGGVDKHTQFWRYFAGNLASGGAAGATSLCFVYPLDFARTRLAADVGKSGTEREFRGLGDCLVKITKSDGIRGLYQGFSVSVQGIIIYRAAYFGVYDTAKGMLPDPKNTHIVVSWMIAQTVTAVAGVVSYPFDTVRRRMMMQSGRKGADIMYTGTVDCWRKIFRDEGGKAFFKGAWSNVLRGMGGAFVLVLYDELKKVI
B6: ATXN2 (protein)
chain: MRSAAAAPRSPAVATESRRFAAARWPGWRSLQRPARRSGRGGGGAAPGPYPSAAPPPPGPGPPPSRQSSPPSASDCFGSNGNGGGAFRPGSRRLLGLGGPPRPFVVLLLPLASPGAPPAAPTRASPLGARASPPRSGVSLARPAPGCPRPACEPVYGPLTMSLKPQQQQQQQQQQQQQQQQQQQQQQQPPPAAANVRKPGGSGLLASPAAAPSPSSSSVSSSSATAPSSVVAATSGGGRPGLGRGRNSNKGLPQSTISFDGIYANMRMVHILTSVVGSKCEVQVKNGGIYEGVFKTYSPKCDLVLDAAHEKSTESSSGPKREEIMESILFKCSDFVVVQFKDMDSSYAKRDAFTDSAISAKVNGEHKEKDLEPWDAGELTANEELEALENDVSNGWDPNDMFRYNEENYGVVSTYDSSLSSYTVPLERDNSEEFLKREARANQLAEEIESSAQYKARVALENDDRSEEEKYTAVQRNSSEREGHSINTRENKYIPPGQRNREVISWGSGRQNSPRMGQPGSGSMPSRSTSHTSDFNPNSGSDQRVVNGGVPWPSPCPSPSSRPPSRYQSGPNSLPPRAATPTRPPSRPPSRPSRPPSHPSAHGSPAPVSTMPKRMSSEGPPRMSPKAQRHPRNHRVSAGRGSISSGLEFVSHNPPSEAATPPVARTSPSGGTWSSVVSGVPRLSPKTHRPRSPRQNSIGNTPSGPVLASPQAGIIPTEAVAMPIPAASPTPASPASNRAVTPSSEAKDSRLQDQRQNSPAGNKENIKPNETSPSFSKAENKGISPVVSEHRKQIDDLKKFKNDFRLQPSSTSESMDQLLNKNREGEKSRDLIKDKIEPSAKDSFIENSSSNCTSGSSKPNSPSISPSILSNTEHKRGPEVTSQGVQTSSPACKQEKDDKEEKKDAAEQVRKSTLNPNAKEFNPRSFSQPKPSTTPTSPRPQAQPSPSMVGHQQPTPVYTQPVCFAPNMMYPVPVSPGVQPLYPIPMTPMPVNQAKTYRAVPNMPQQRQDQHHQSAMMHPASAAGPPIAATPPAYSTQYVAYSPQQFPNQPLVQHVPHYQSQHPHVYSPVIQGNARMMAPPTHAQPGLVSSSATQYGAHEQTHAMYACPKLPYNKETSPSFYFAISTGSLAQQYAHPNATLHPHTPHPQPSATPTGQQQSQHGGSHPAPSPVQHHQHQAAQALHLASPQQQSAIYHAGLAPTPPSMTPASNTQSPQNSFPAAQQTVFTIHPSHVQPAYTNPPHMAHVPQAHVQSGMVPSHPTAHAPMMLMTTQPPGGPQAALAQSALQPIPVSTTAHFPYMTHPSVQAHHQQQL
B7: LSM12 (protein)
chain: AAPPGEYFSVGSQVSCRTCQEQRLQGEVVAFDYQSKMLALKCPSSSGKPNHADILLINLQYVSEVEIINDRTETPPPLASLNVSKLASKARTEKEEKLSQAYAISAGVSLEGQQLFQTIHKTIKDCKWQEKNIVVMEEVVITPPYQVENCKGKEGSALSHVRKIVEKHFRDVESQKILQRSQAQQPQKEAALSS

Biological target: T1, B3GNT2
Experiment: Co-IP of FLAG-tagged B3GNT2 followed by mass spectrometry
Assay type: cell-based
Parameters: C-term IgG / C-term flag: unit not given here
Procedure, shortened: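 Co-purifying proteins were identified by fractionated nano-LC–MS/MS on an Orbitrap Elite, run data-dependent. Beforehand, lysates in 1% Triton X-100/HEPES buffer were incubated overnight at 4° C with anti-FLAG or […] and pulled down on Protein A/G magnetic beads for 4 h. Duplicate biological replicates.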

[1] = Co-IP followed by mass spectrometry of B3GNT2, C-term tag, FLAG pull-down
[2] = Co-IP followed by mass spectrometry of B3GNT2, C-term tag, IgG pull-down
[3] = Co-IP followed by mass spectrometry of B3GNT2, N-term tag, FLAG pull-down
[4] = Co-IP followed by mass spectrometry of B3GNT2, N-term tag, IgG pull-down

Molecule	C-term flag [1]	C-term IgG [2]	N-term FLAG [3]	N-term IgG [4]	C-term flag (Co-IP with FLAG antibody, C-terminally FLAG-tagged B3GNT2, mass spectrometry count, unit not given)	N-term FLAG (Co-IP with FLAG antibody, N-terminally FLAG-tagged B3GNT2, mass spectrometry count, unit not given)	C-term IgG (Co-IP with IgG control antibody, C-terminally FLAG-tagged B3GNT2, mass spectrometry count, unit not given)	N-term IgG (Co-IP with IgG control antibody, N-terminally FLAG-tagged B3GNT2, mass spectrometry count, unit not given)
B1	2	0	3	4	–	–	–	–
B2	2	4	13	0	–	–	–	–
B3	331	295	370	316	–	–	–	–
B4	0	3	6	2	–	–	–	–
B5	–	–	–	–	19	15	0	0
B6	3	3	4	3	–	–	–	–
B7	4	0	4	2	–	–	–	–
